# Literature values as cited in publication PMC12990809.
# Assays:
# Experiment in all cases: pulldown
# Conditions in all cases: 20 nM protein, 1.5 uM RNA pool; 20 mM HEPES pH 7.8, 70 mM KCl, 10 mM NaCl, 10% glycerol, 2 mM DTT, 0.1 ug/uL BSA; 30 min, 4 C (protocol of this paper; not …); cited from earlier work
# [1] = molecular target: T1, RBM3 (Homo sapiens) (UniProt P98179)
# T1 sequence: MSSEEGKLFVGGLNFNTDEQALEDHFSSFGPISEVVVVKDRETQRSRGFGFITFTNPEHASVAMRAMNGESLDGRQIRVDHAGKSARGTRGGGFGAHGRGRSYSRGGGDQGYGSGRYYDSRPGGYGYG
# [2] = molecular target: T2, Rbm38 (Mus musculus) (UniProt Q62176)
# T2 sequence: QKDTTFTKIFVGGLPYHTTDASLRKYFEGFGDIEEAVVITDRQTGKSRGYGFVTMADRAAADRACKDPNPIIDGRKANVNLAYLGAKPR
# [3] = molecular target: T3, shep (Drosophila melanogaster) (UniProt Q8MSV2)
# T3 sequence: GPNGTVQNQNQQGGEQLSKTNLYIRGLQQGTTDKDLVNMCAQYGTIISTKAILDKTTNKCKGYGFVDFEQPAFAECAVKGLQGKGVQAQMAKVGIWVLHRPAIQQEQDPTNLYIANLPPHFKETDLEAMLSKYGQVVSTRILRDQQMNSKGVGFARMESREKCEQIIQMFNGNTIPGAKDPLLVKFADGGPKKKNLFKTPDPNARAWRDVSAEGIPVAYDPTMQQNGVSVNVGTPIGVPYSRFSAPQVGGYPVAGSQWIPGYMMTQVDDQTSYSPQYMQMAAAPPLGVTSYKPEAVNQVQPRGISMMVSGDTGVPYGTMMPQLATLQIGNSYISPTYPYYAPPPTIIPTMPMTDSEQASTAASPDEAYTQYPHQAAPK
# [4] = molecular target: T4, RBMS3 (Homo sapiens) (UniProt Q6XE24)
# T4 sequence: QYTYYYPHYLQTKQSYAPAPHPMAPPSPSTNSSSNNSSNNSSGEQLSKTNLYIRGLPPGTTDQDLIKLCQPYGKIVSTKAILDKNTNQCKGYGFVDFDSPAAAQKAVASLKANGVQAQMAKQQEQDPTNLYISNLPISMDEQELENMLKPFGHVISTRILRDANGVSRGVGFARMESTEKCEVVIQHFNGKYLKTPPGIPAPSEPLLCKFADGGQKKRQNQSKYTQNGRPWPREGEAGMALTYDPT
# [5] = molecular target: T5, SAMD4A (Homo sapiens) (UniProt Q9UPU9)
# T5 sequence: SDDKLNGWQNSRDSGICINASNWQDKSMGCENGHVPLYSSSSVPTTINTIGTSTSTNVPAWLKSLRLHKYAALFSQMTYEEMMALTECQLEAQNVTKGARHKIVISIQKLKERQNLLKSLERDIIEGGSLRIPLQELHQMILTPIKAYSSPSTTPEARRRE
# [6] = molecular target: T6, Rsf1 (Drosophila melanogaster) (UniProt Q24491)
# T6 sequence: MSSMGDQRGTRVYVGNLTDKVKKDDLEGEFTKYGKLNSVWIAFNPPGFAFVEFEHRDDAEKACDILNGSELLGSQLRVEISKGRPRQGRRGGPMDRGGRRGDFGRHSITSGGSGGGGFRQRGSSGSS
# [7] = molecular target: T7, CG14718 (Drosophila melanogaster) (UniProt Q7K543)
# T7 sequence: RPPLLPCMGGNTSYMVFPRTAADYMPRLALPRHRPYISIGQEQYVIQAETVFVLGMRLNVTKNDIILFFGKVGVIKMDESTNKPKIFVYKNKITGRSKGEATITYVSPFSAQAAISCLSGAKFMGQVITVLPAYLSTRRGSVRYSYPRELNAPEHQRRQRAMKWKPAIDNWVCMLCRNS
# [8] = molecular target: RBM5 (Homo sapiens) (UniProt P52756)
# [9] = molecular target: T8, SART3 (Homo sapiens) (UniProt Q15020)
# T8 sequence: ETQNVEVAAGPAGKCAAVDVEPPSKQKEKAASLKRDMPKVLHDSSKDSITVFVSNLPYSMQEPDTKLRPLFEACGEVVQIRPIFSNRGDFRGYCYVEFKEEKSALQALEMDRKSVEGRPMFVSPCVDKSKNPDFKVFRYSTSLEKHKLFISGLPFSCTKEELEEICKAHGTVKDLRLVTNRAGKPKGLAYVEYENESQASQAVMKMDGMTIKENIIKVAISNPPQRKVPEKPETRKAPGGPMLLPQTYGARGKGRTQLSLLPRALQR
# [10] = molecular target: T9, pum (Drosophila melanogaster) (UniProt P25822)
# T9 sequence: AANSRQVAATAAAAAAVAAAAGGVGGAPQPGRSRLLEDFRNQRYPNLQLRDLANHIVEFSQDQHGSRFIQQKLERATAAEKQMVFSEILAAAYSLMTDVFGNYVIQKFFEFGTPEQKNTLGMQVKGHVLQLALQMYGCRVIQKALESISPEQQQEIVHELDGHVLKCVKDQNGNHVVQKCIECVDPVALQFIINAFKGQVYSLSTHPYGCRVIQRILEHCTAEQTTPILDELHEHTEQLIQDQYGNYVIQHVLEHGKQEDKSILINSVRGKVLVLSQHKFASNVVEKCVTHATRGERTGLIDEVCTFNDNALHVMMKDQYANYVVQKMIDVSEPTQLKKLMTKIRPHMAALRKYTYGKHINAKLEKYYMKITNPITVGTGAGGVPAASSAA
# [11] = molecular target: PABPC4 (Homo sapiens) (UniProt Q13310)
# [12] = molecular target: T10, Rbp1 (Drosophila melanogaster) (UniProt Q02427)
# T10 sequence: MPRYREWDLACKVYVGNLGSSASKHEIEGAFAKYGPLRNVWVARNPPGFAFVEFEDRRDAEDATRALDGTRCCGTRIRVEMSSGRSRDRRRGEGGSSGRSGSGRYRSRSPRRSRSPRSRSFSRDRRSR
# [13] = molecular target: T11, SF2 (Drosophila melanogaster) (UniProt Q7KJ21)
# T11 sequence: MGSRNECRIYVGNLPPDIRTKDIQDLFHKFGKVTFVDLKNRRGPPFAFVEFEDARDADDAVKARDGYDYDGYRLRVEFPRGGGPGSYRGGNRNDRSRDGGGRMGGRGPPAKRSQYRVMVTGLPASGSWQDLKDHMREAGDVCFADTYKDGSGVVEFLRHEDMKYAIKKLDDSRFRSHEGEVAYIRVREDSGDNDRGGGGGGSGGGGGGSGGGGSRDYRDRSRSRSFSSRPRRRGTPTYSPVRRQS
# [14] = molecular target: T12, SF1 (Drosophila melanogaster) (UniProt A9UNA1)
# T12 sequence: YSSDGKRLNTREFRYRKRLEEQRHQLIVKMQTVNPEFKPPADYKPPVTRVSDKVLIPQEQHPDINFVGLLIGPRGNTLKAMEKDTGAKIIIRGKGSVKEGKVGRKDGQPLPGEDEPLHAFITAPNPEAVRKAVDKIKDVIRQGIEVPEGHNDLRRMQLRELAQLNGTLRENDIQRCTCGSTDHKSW
# [15] = molecular target: T13, QKI (Homo sapiens) (UniProt Q96PU8)
# T13 sequence: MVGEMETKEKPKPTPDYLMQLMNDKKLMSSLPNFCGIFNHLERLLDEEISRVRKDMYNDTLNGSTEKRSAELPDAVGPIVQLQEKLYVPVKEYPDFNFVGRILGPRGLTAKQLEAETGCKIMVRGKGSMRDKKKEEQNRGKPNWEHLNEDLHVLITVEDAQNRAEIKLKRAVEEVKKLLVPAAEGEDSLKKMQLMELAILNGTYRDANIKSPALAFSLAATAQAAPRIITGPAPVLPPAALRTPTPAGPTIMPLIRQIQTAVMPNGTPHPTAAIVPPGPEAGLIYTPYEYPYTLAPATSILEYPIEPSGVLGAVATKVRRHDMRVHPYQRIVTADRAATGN
# [16] = molecular target: T14, RBM46 (Homo sapiens) (UniProt Q8TBY0)
# T14 sequence: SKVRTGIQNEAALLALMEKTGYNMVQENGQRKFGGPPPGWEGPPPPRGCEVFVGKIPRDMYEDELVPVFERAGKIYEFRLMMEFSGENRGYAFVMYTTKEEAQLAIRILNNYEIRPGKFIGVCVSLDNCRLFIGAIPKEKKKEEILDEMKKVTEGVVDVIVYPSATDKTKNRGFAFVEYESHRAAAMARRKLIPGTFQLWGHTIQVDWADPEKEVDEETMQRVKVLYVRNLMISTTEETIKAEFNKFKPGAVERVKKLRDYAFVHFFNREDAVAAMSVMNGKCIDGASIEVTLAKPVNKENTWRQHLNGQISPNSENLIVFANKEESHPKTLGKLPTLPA
# [17] = molecular target: T15, RBM41 (Homo sapiens) (UniProt Q96IZ5)
# T15 sequence: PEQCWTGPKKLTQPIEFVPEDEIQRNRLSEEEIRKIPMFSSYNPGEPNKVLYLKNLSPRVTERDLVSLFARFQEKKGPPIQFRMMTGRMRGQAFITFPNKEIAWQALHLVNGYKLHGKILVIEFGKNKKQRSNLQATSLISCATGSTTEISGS
# [18] = molecular target: SRSF9 (Homo sapiens) (UniProt Q13242)
# [19] = molecular target: T16, tiar-3 (Caenorhabditis elegans) (UniProt Q93194)
# T16 sequence: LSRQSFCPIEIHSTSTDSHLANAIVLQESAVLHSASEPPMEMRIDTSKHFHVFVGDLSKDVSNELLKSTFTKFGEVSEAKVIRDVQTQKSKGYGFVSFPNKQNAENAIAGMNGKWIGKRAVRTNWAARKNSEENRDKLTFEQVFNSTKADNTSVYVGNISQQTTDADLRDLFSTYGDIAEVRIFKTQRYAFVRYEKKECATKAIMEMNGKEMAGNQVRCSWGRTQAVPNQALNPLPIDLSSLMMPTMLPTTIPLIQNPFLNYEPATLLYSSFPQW
# [20] = molecular target: Khdrbs1 (Mus musculus) (UniProt Q60749)
# [21] = molecular target: T17, RBM4 (Homo sapiens) (UniProt Q9BWF3)
# T17 sequence: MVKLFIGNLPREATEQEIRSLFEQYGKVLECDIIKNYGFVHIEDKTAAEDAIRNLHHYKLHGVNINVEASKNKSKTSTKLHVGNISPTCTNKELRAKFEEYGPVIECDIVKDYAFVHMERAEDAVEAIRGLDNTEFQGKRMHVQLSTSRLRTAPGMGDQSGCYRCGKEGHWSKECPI
# [22] = molecular target: T18, RBM28 (Homo sapiens) (UniProt Q9NW13)
# T18 sequence: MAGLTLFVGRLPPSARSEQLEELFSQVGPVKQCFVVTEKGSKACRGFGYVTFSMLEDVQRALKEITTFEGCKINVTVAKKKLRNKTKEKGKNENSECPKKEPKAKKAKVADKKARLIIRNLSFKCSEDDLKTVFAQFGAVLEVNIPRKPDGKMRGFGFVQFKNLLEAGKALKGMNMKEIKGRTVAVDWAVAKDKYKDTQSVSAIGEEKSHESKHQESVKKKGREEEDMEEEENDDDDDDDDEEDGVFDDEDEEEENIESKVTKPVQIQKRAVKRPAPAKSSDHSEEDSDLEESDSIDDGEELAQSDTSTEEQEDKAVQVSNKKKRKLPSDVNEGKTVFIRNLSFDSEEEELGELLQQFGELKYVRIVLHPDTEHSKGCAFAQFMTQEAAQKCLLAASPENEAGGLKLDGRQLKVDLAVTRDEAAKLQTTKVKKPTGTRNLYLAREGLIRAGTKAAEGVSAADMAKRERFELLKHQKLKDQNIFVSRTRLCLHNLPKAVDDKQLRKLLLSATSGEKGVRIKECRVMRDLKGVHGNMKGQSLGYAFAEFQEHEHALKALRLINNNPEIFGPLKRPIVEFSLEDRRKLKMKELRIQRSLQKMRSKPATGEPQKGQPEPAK
# Sequence of Khdrbs1 (Mus musculus) (Q60749 3-443): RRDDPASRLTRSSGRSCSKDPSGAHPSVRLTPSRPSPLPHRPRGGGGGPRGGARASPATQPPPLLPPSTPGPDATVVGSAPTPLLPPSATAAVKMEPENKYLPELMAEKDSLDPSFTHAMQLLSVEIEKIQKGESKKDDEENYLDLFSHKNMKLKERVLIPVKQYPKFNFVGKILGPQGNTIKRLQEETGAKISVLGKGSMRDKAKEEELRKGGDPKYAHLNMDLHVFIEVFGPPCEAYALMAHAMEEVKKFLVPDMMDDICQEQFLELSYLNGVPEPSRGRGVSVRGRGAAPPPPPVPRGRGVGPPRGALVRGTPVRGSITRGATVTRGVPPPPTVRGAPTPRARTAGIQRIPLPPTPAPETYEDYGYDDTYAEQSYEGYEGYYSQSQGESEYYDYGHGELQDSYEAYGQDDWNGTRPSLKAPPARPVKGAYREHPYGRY
# Sequence of PABPC4 (Homo sapiens) (Q13310 1-414): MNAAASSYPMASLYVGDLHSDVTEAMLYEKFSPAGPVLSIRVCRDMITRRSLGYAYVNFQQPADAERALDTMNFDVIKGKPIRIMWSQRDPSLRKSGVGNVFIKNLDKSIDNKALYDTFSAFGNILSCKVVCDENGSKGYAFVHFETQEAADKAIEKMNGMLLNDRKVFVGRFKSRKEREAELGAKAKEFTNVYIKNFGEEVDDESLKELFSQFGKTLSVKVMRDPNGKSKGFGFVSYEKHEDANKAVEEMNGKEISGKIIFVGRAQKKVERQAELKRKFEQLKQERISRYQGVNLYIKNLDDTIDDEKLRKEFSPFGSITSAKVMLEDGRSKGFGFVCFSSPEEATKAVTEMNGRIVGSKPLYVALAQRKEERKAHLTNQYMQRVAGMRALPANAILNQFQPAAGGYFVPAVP
# Sequence of RBM5 (Homo sapiens) (P52756 1-546): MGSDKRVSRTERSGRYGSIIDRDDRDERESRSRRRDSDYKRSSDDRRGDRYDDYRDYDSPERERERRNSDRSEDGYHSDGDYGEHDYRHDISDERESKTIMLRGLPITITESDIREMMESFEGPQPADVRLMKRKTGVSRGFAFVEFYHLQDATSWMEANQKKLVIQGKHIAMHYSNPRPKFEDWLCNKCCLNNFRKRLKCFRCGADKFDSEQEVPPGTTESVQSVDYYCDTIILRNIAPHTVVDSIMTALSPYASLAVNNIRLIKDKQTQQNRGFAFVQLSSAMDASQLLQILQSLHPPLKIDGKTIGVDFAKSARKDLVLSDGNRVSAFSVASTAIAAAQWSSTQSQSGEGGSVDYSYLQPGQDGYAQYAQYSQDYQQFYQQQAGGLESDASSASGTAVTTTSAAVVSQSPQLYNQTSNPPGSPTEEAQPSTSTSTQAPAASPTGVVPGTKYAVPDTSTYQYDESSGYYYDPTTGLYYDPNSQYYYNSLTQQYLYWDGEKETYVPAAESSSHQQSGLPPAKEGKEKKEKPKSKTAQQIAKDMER
# Sequence of SRSF9 (Homo sapiens) (Q13242 whole entry): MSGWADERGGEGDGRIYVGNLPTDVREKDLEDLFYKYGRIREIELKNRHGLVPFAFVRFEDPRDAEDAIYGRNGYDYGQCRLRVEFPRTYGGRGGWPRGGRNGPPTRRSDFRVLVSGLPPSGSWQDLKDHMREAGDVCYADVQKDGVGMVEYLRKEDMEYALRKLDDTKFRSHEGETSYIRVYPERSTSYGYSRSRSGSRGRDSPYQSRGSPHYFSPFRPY
substance,measurement,setting,value
AGAUAC [RNAcompete motif RNCMPT00050],binding signal (z-score (mean of top ten 7-mers)),[1],7.1
UUUNUGU [RNAcompete motif RNCMPT00051],binding signal (z-score (mean of top ten 7-mers)),[2],17
UAUAUUA [RNAcompete motif RNCMPT00175],binding signal (z-score (mean of top ten 7-mers)),[3],7.37
UAUAUA [RNAcompete motif RNCMPT00173],binding signal (z-score (mean of top ten 7-mers)),[4],8.57
GCUGGNC [RNAcompete motif RNCMPT00063],binding signal (z-score (mean of top ten 7-mers)),[5],15.9
ACGACGA [RNAcompete motif RNCMPT00061],binding signal (z-score (mean of top ten 7-mers)),[6],10.6
CCAGAUG [RNAcompete motif RNCMPT00006],binding signal (z-score (mean of top ten 7-mers)),[7],11.9
GAAGGNA [RNAcompete motif RNCMPT00055],binding signal (z-score (mean of top ten 7-mers)),[8],6.04
GAAAAA [RNAcompete motif RNCMPT00064],binding signal (z-score (mean of top ten 7-mers)),[9],11.1
UGUACAU [RNAcompete motif RNCMPT00046],binding signal (z-score (mean of top ten 7-mers)),[10],28.5
AAAAAA [RNAcompete motif RNCMPT00043],binding signal (z-score (mean of top ten 7-mers)),[11],12.2
ACAACG [RNAcompete motif RNCMPT00058],binding signal (z-score (mean of top ten 7-mers)),[12],9.03
GGAGGA [RNAcompete motif RNCMPT00066],binding signal (z-score (mean of top ten 7-mers)),[13],14.1
UCUNAU [RNAcompete motif RNCMPT00065],binding signal (z-score (mean of top ten 7-mers)),[14],9.28
ACUAACC [RNAcompete motif RNCMPT00047],binding signal (z-score (mean of top ten 7-mers)),[15],6.41
AAUCAA [RNAcompete motif RNCMPT00054],binding signal (z-score (mean of top ten 7-mers)),[16],8.4
AUACAU [RNAcompete motif RNCMPT00053],binding signal (z-score (mean of top ten 7-mers)),[17],10.7
AUGGA [RNAcompete motif RNCMPT00067],binding signal (z-score (mean of top ten 7-mers)),[18],6.71
UUUUUU [RNAcompete motif RNCMPT00005],binding signal (z-score (mean of top ten 7-mers)),[19],11
UAAAAG [RNAcompete motif RNCMPT00062],binding signal (z-score (mean of top ten 7-mers)),[20],7.39
CGCGCG [RNAcompete motif RNCMPT00113],binding signal (z-score (mean of top ten 7-mers)),[21],17.7
GAGUAG [RNAcompete motif RNCMPT00049],binding signal (z-score (mean of top ten 7-mers)),[22],7.8
